Measured values reported in patent publication US20190077860A1 (EISAI R AND D MANAGEMENT, published 2019).
Positions count from the first letter of the chain named. Names may count otherwise.

T1: human EphB6 extracellular region-SEAP-His protein (human, UniProt O15197 32-594)
T1 construct: extracellular domain; also called hEphB6-SEAP-His
T1 sequence (looked up): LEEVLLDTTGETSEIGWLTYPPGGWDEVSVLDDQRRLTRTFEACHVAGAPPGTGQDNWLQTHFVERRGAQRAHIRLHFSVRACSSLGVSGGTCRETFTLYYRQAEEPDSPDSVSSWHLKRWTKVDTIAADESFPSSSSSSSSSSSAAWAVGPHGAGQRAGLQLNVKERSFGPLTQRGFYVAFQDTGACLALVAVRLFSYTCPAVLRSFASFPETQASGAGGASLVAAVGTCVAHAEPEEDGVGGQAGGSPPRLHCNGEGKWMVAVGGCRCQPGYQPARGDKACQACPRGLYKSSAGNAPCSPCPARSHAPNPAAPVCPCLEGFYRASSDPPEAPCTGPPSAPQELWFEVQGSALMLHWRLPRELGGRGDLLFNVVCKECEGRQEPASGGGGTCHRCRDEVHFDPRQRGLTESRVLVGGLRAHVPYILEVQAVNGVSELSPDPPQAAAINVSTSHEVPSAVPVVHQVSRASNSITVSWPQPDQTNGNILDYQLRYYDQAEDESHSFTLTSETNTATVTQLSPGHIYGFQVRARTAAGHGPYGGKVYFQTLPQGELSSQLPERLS

T2: human EphA1 extracellular region-SEAP-His protein (human, UniProt P21709 26-547)
T2 construct: extracellular domain; also called hEphA1-SEAP-His
T2 sequence (looked up): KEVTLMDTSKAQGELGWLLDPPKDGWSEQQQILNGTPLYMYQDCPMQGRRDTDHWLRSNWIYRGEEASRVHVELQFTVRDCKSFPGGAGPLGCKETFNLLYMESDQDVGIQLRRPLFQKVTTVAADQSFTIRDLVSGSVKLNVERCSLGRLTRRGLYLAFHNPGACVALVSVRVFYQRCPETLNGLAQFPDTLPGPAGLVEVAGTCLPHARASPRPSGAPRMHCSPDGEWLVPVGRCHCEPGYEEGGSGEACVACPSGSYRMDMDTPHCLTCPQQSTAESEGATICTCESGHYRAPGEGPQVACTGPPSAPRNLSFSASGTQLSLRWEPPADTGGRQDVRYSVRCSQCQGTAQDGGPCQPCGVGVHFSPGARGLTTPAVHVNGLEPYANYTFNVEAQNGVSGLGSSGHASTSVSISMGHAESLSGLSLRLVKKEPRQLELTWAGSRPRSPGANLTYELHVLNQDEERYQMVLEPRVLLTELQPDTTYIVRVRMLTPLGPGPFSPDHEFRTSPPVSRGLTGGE

T3: human EphA8 extracellular region-SEAP-His protein (human, UniProt P29322 28-542)
T3 construct: extracellular domain; also called hEphA8-SEAP-His
T3 sequence (looked up): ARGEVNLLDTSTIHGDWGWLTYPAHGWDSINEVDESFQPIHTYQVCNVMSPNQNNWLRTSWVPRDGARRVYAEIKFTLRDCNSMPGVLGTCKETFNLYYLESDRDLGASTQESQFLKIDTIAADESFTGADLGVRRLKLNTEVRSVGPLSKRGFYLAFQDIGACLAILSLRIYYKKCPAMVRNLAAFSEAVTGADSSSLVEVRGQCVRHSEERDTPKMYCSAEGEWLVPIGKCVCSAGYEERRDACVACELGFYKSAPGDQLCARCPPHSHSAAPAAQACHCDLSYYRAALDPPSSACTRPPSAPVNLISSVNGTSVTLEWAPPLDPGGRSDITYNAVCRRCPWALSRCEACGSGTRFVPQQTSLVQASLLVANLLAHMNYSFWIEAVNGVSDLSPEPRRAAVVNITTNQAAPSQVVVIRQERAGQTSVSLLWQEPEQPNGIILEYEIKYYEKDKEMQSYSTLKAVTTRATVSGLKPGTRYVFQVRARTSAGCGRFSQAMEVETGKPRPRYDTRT

B1: humanized antibody No. 76 (antibody, human IgG1, kappa)
heavy: QVQLVQSGSELKKPGASVKVSCKASGYTFTDYSMHWVRQAPGQGLKWMGWINTETGEPTYAQGFTGRFVFSLDTSVSTAYLQISSLKAEDTAVYYCARIPLYYYGSRYWYFDVWGQGTTVTVSSASTKGPSVFPLAPSSKSTSGGTAALGCLVKDYFPEPVTVSWNSGALTSGVHTFPAVLQSSGLYSLSSVVTVPSSSLGTQTYICNVNHKPSNTKVDKRVEPKSCDKTHTCPPCPAPPAAAPSVFLFPPKPKDTLMISRTPEVTCVVVDVSHEDPEVQFNWYVDGVEVHNAKTKPREEQFNSTFRVVSVLTVVHQDWLNGKEYKCKVSNKGLPAPIEKTISKTKGQPREPQVYTLPPSREEMTKNQVSLTCLVKGFYPSDIAVEWESNGQPENNYKTTPPMLDSDGSFFLYSKLTVDKSRWQQGNVFSCSVMHEALHNHYTQKSLSLSPG
light: DIQMTQSPSSLSASVGDRVTITCRASENIYRNLAWYQQKPGKAPKLLVYAATNLADGVPSRFSGSGSGTDYTLTISSLQPEDFATYYCQHFWGTPWTFGQGTKVEIKRTVAAPSVFIFPPSDEQLKSGTASVVCLLNNFYPREAKVQWKVDNALQSGNSQESVTEQDSKDSTYSLSSTLTLSKADYEKHKVYACEVTHQGLSSPVTKSFNRGEC
notes: human Ig kappa; also called L1-4/HA2
B2: humanized antibody No. 69 (antibody, human IgG1, kappa)
heavy: B1 heavy with V2I, Q62D, G63D, T65K
light: B1 light
notes: human Ig kappa; also called L1-4/HK4
B3: humanized antibody No. 75 (antibody, human IgG1, kappa)
heavy: B1 heavy with K46E
light: B1 light
notes: constant region: human IgG1 CH1 and hinge, human IgG2 CH2 and CH3 with V234A, G237A, no C-terminal Lys; human Ig kappa; also called L1-4/HA1
B4: humanized antibody No. 86 (antibody, human IgG1, kappa)
heavy: B1 heavy with V2I, Q62D, G63D, T65K
light: B1 light with V48L, P80S
notes: human Ig kappa; also called L1-5/HK4
B5: humanized antibody No. 82 (antibody, human IgG1, kappa)
heavy: B1 heavy
light: B1 light with V48L, P80S
notes: human Ig kappa; also called L1-5/HA2
B6: humanized antibody No. 84 (antibody, human IgG1, kappa)
heavy: B1 heavy with K46E, Q62D, G63D, T65K
light: B1 light with V48L, P80S
notes: human Ig kappa; also called L1-5/HK1
B7: humanized antibody No. 78 (antibody, human IgG1, kappa)
heavy: B1 heavy with Q62D, G63D, T65K
light: B1 light
notes: human Ig kappa; also called L1-4/HK2
B8: humanized antibody No. 87 (antibody, human IgG1, kappa)
heavy: B1 heavy with K46E
light: B1 light with K45Q, V48L
notes: human Ig kappa; also called L1-6/HA1
B9: humanized antibody No. 85 (antibody, human IgG1, kappa)
heavy: B1 heavy with Q62D, G63D, T65K
light: B1 light with V48L, P80S
notes: human Ig kappa; also called L1-5/HK2
B10: humanized antibody No. 83 (antibody, human IgG1, kappa)
heavy: B1 heavy with V2I
light: B1 light with V48L, P80S
notes: human Ig kappa; also called L1-5/HA4
B11: humanized antibody No. 67 (antibody, human IgG1, kappa)
heavy: B1 heavy with V2I
light: B1 light
notes: human Ig kappa; also called L1-4/HA4
B12: humanized antibody No. 81 (antibody, human IgG1, kappa)
heavy: B1 heavy with K46E
light: B1 light with V48L, P80S
notes: human Ig kappa; also called L1-5/HA1
B13: humanized antibody No. 77 (antibody, human IgG1, kappa)
heavy: B1 heavy with K46E, Q62D, G63D, T65K
light: B1 light
notes: human Ig kappa; also called L1-4/HK1

Tests used:
Experiment in all cases: ELISA
[1] = target: T1, human EphB6 extracellular …
Method: (§1) Each well of a 96-well plate (Nunc) was coated with a rabbit anti-6-His antibody (Bethyl Laboratories). Each well was […] After washing with 0.05% Tween 20/PBS (Nacalai Tesque) three times, the SEAP-His protein of human EphA1, EphA2, EphA3, EphA4, EphA5, EphA6, EphA7, EphA8, EphA10, EphB1, EphB2, EphB3, EphB4, or EphB6 was added (final concentration: 1 nM) to each well and incubated at room temperature for 1 hour. After washing three times, the humanized antibody was added to each well and incubated at room temperature for 1 hour. After washing three times, a horseradish peroxidase-labeled donkey […] antibody (Jackson ImmunoResearch Laboratories) was added thereto and incubated at room temperature for 1 hour. After washing three times, TMB Microwell Peroxidase Substrate System (Kirkegaard & Perry Laboratories (KPL)) was added to each well. After confirmation of moderate color development, an equal amount of a reaction stopping solution (1N H₂SO₄, Wako Pure Chemical Industries) was added to each well. The absorbance at 450 nm was read using a microplate reader (Thermo Fisher Scientific).

[2] = target: T4, human EphA2 extracellular region-SEAP-His protein (human, UniProt P29317 24-537)
T4 construct: extracellular domain; also called hEphA2-SEAP-His
Method: as §1

[3] = target: T2, human EphA1 extracellular …
Method: as §1

[4] = target: T5, human EphA5 extracellular region-SEAP-His protein (human, UniProt P54756 25-573)
T5 construct: extracellular domain; also called hEphA5-SEAP-His
Method: as §1

[5] = target: T3, human EphA8 extracellular …
Method: as §1

[6] = target: T6, human EphA4 extracellular region-SEAP-His protein (human, UniProt P54764 20-547)
T6 construct: also called hEphA4-SEAP-His
Method: as §1

T4 sequence (P29317 24-537): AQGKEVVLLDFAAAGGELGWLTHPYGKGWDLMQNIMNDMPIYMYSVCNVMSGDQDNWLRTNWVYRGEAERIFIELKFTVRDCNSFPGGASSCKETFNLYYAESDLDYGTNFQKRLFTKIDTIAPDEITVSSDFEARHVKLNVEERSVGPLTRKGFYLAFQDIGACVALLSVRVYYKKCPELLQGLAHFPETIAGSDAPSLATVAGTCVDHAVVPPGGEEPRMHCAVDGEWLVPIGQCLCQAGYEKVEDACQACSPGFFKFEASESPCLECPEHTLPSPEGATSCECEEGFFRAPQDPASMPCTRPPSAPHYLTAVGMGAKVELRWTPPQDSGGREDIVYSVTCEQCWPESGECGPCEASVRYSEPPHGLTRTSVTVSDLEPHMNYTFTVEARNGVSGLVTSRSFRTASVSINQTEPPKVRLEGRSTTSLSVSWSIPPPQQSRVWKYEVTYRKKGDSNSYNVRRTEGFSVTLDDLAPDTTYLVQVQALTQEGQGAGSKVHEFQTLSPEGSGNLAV
T6 sequence (P54764 20-547): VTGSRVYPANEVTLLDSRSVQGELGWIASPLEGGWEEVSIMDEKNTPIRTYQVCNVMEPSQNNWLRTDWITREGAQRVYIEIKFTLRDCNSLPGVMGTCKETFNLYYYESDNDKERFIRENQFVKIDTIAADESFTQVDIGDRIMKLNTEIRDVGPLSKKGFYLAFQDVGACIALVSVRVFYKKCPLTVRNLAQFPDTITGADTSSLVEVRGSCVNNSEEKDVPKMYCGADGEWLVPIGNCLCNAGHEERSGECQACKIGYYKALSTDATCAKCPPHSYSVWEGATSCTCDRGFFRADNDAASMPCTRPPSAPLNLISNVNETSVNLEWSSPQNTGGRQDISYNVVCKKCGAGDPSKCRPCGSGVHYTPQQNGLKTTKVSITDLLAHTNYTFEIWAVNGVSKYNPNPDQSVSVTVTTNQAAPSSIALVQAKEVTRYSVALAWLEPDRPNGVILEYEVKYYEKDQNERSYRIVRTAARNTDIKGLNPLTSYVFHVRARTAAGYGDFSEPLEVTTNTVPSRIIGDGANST
T5 sequence (P54756 25-573): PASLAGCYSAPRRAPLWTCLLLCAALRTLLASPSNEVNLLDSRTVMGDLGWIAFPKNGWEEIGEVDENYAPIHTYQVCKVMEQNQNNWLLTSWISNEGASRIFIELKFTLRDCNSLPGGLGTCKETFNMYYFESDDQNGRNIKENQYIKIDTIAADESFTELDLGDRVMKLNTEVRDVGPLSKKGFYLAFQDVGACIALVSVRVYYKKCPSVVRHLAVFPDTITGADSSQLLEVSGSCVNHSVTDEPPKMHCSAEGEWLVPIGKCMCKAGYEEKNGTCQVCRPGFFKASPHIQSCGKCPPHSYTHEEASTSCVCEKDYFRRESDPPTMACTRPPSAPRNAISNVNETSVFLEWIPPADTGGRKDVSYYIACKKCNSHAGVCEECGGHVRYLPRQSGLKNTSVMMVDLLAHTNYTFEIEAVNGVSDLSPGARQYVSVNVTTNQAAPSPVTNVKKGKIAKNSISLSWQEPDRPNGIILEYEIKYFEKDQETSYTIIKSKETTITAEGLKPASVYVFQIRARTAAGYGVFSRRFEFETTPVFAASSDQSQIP

Binder	A450 as % of hEphA4-SEAP-His [1]	A450 as % of hEphA4-SEAP-His [2]	A450 as % of hEphA4-SEAP-His [3]	A450 as % of hEphA4-SEAP-His [4]	A450 as % of hEphA4-SEAP-His [5]	A450 as % of hEphA4-SEAP-His [6]
B1	5.2%	4.8%	5.1%	5.3%	5.5%	100%
B2	5.6%	5.5%	5.7%	5.6%	5.5%	100%
B3	4.7%	4.6%	4.7%	4.7%	4.8%	100%
B4	5.7%	5.7%	5.9%	5.7%	5.7%	100%
B5	5.5%	5.4%	5.4%	6.5%	5.8%	100%
B6	4.9%	4.9%	5.2%	5%	5.3%	100%
B7	5.2%	4.9%	6.6%	5.1%	5.4%	100%
B8	5.3%	5.4%	5.3%	5.4%	5.7%	100%
B9	5.2%	5.1%	5%	5%	5.5%	100%
B10	5.8%	5.8%	5.7%	5.8%	6%	100%
B11	4.7%	4.6%	4.6%	4.8%	4.7%	100%
B12	5%	4.8%	4.4%	4.9%	5.2%	100%
B13	4.5%	4.5%	4.5%	4.4%	4.8%	100%
